The record followed here is paper doi:10.1101/2023.08.10.552581.

For assay [1], the target named is PAR-2 RING domain (C. elegans). Description: AUC.
The target in assay [2] is PAR-2 RING domain (C. elegans). Description: SEC-MALS.

Take PAR-2 RING domain (domain or fragment): in assay [1], the Kd was determined as 358 nM. The same substance registered a stoichiometry N in assay [2] of 2.

One may read the Kd as the constant that tells how readily two partners part at equilibrium. A high value points to weaker binding. Usually stoichiometry N stands for the number of molecules, sites or subunits per partner or assembly.
